The target in assay [1] is T1, cell-bound CD73 (human, UniProt P21589 27-549).
T1 sequence (looked up): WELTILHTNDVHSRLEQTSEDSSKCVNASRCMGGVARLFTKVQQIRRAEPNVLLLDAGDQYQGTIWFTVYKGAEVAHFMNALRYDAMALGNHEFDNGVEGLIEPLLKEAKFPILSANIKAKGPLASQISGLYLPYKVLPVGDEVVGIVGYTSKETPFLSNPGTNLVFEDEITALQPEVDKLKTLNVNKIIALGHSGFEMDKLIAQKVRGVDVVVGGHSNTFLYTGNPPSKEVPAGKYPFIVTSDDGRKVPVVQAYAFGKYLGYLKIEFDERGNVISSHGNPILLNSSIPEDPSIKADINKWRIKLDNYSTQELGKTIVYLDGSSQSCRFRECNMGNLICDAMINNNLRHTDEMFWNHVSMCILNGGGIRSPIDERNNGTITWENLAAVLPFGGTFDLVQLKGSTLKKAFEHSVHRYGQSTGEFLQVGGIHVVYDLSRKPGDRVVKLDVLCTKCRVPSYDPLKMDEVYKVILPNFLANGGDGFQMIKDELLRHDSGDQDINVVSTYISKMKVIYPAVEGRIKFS
Put plainly: cell-based or functional assay.

The next assay addresses T2, mouse CD73 (mouse, UniProt Q61503 29-551, limits assumed).
T2 construct: also called murine CD73
T2 sequence (looked up): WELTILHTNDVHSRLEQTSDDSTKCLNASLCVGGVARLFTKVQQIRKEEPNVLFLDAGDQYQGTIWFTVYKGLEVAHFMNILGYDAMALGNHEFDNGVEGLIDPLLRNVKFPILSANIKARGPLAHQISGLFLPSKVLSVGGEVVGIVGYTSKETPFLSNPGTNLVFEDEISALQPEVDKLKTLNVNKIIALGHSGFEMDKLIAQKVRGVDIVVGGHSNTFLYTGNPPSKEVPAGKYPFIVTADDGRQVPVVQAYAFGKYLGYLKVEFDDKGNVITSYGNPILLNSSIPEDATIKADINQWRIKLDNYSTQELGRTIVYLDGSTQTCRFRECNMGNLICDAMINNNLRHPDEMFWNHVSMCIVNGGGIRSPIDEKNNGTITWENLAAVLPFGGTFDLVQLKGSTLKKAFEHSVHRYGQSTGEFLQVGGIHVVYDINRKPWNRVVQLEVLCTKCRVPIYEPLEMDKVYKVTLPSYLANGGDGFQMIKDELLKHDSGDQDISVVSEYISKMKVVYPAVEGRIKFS
Put plainly: SPR, mouse CD73 compared with human CD73 (reference). (In general: SPR reads the build-up and loss of mass on a sensor chip optically.)

Assay [2] addresses T1, cell-bound CD73. Put plainly: cell-based or functional assay. This is another data set of the same source.
The target of assay [3] is T1, cell-bound CD73. As to the kind of experiment: cell-based or functional assay. The source holds these as a separate data set.
For assay [4], the target named is T1, cell-bound CD73. As to the kind of experiment: cell-based or functional assay. The source holds these as a separate data set.
The target of assay [5] is T1, cell-bound CD73. As to the kind of experiment: cell-based or functional assay. The source holds these as a separate data set.
In assay [6] the target is T3, recombinant human CD73 protein (human, UniProt P21589 27-549, limits assumed).
T3 sequence (looked up): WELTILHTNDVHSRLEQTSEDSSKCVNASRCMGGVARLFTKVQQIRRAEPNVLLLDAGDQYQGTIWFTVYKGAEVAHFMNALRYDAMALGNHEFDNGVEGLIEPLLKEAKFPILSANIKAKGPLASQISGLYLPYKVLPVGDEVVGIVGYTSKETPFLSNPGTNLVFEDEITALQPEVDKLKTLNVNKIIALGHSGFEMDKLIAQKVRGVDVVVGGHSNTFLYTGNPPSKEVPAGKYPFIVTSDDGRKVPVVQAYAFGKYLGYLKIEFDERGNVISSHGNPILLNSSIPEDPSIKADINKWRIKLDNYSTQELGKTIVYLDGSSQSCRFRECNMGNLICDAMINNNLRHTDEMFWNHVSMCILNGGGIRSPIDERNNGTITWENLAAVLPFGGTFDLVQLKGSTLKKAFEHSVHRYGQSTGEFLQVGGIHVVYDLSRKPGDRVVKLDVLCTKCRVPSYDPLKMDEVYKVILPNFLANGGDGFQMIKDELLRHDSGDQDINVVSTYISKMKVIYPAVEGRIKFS
Put plainly: cell-based or functional assay.

A further assay deals with T4, human CD73-His (human, UniProt P21589 27-549).
T4 construct: extracellular domain; The SPR analyte is only called 'human CD73-His' (non-covalent dimeric antigen); also called HuCD73 His tagged; HuCD73his20170303
T4 sequence: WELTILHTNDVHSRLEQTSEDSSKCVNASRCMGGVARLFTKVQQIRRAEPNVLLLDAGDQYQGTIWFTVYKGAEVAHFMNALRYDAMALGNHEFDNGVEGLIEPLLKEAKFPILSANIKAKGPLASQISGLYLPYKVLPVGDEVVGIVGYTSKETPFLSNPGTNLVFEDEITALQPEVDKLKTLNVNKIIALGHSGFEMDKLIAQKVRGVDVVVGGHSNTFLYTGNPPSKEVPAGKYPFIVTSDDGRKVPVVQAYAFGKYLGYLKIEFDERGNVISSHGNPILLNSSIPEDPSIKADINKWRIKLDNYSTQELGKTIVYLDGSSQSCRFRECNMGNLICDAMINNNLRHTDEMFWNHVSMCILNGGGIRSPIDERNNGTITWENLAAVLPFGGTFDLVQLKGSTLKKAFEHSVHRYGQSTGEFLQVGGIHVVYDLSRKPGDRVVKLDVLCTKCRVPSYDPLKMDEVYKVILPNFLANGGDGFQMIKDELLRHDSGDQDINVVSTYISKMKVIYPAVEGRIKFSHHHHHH
As to the kind of experiment: SPR (ProteOn XPR36), antibody captured on Protein A/G, dimeric human CD73-His as analyte, avidity format, 1:1 Langmuir fit. As to the method:
For the avidity format, the experiment was performed on a Bio-Rad ProteOn XPR36 instrument. Antibodies were captured via Protein A/G and the non-covalent dimeric antigens were flowed over the captured surface. The running buffer for this experiment and all dilutions were prepared in PBS-T-EDTA. The GLM sensor chip was normalized and pre-conditioned as per the manufacturer's recommendations. The sensor chip was activated with an equal mixture of EDC/s-NHS in the horizontal direction for 300 s at a flow rate of 30 μL/min and immobilized with recombinant Protein A/G (50 μg/ml in 10 mM acetate pH 4.5) in the horizontal direction for 300 s at a flow rate of 30 μL/min resulting in about 5000 RU of Protein A/G on the surface. The sensor chip was deactivated with 1M ethanolamine-HCl in the horizontal direction for 300 s at a flow rate of 30 μL/min. The sensor chip was regenerated with 18 s of 0.85% phosphoric acid at a flow rate of 100 μL/min 2 times horizontally and 2 times vertically.
About 300 RU of antibody was captured on the Protein A/G surface vertically for 60 s at a flow rate of 30 μL/min. The capture surface was stabilized by injecting PBS-T-EDTA for 60 s at a flowrate of 100 μL/min horizontally. The analyte (human CD73-His) was injected horizontally over the captured antibody for 600 s at a flow rate of 30 μL/min with a dissociation of 1200 s. The concentrations of human CD73-His were 0 nM, 3.125 nM, 6.25 nM, 12.5 nM, 25 nM and 50 nM. The surface was regenerated by injecting 0.85% phosphoric acid for 18 s at a flow rate of 100 μL/min one time horizontally and one time vertically.
The interspot (interactions with sensor surface) and blank (PBS-T-EDTA or 0 nM analyte) were subtracted from the raw data.

In the next assay the target is T5, non-cell-bound CD73 (human, UniProt P21589 27-549, limits assumed).
T5 sequence (looked up): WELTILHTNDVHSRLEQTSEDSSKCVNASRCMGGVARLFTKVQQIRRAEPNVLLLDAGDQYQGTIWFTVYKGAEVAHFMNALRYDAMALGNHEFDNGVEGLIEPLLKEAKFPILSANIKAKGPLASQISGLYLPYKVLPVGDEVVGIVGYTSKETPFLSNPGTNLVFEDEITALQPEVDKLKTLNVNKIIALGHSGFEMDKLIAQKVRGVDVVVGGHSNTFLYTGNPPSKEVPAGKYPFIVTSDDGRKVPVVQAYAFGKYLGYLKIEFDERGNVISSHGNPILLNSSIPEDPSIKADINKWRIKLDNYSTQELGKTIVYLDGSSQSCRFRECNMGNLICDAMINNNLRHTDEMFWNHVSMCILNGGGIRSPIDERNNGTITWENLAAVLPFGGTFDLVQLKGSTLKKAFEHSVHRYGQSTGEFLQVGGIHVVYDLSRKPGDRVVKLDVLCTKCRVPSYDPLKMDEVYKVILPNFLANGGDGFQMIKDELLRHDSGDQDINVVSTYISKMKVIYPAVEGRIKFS
As to the kind of experiment: cell-based or functional assay.

B1: C5 (antibody, human IgG1, kappa, L234A L235A, V domains shown)
VH: QVQLVQSGAEVKKPGDSVKVSCKASGYTFTTYWMHWVRQAPGQGLEWMGAIYPGNSDTTYNQKFKGKVTMTRDTSTSTVYMKLSSLRSEDTAVYYCARLLDYAMDYWGQGTLVTVSS
VL: DIQMTQSPSSLSASVGDRVTITCRASQDIRSYLNWHQQKPGKAPKLLIWYTSRLHSGVPSRFSGSGSGTDYTLTISSLEPEDFATYFCQQGETLPWTFGQGTKLEIKR
notes: Humanized monoclonal antibody; also called anti-CD73 antibody C5
Turning to B1, the “CD73 surface reduction [%] on Colo201 cells, 24 h, flow cytometry” value in the assay with cell-bound CD73 [1] was 19%. In addition, the “fold higher binding to human CD73 than to mouse CD73” value in the assay with mouse CD73 turned out to be 163 fold. In the assay with cell-bound CD73 [2], the “CD8 T cell proliferation [% of control], Donor A, 1 nM antibody” value amounted to 103%; the “CD8 T cell proliferation [% of control], Donor B, 1 nM antibody” value was 80.3%; the “CD8 T cell proliferation [% of control], Donor C, 1 nM antibody” value was 101%; the “CD8 T cell proliferation [% of control], Donor D, 1 nM antibody” value stood at 99.3%. In the assay with cell-bound CD73 [2], the “CD8 T cell proliferation [% of control], Donor E, 1 nM antibody” value came to 100% and the “CD8 T cell proliferation [% of control], Donor F, 1 nM antibody” value was 86%. Besides, in the assay with cell-bound CD73 [3], the “IFNγ release [fold change over control], Donor A, 1 nM antibody” value came out at 24.5 fold; the “IFNγ release [fold change over control], Donor B, 1 nM antibody” value was found to be 11.3 fold; the “IFNγ release [fold change over control], Donor C, 1 nM antibody” value stood at 59.3 fold; the “IFNγ release [fold change over control], Donor D, 1 nM antibody” value amounted to 22.9 fold. In addition, in the assay with cell-bound CD73 [3], the “IFNγ release [fold change over control], Donor E, 1 nM antibody” value came to 12.4 fold and the “IFNγ release [fold change over control], Donor F, 1 nM antibody” value came out at 5.8 fold. Also, the “% of max. adenosine inhibition, washed Colo-201 cells” value with cell-bound CD73 [4] came out at 82%. In addition, the “Max. adenosine inhibition [%] in Colo201 cells” value with cell-bound CD73 [5] was determined as 87%. Further, the “IC90 of inhibition of CD73 enzymatic function (luciferase-based assay)” value in [6] was 0.29 nM. Besides, the Kd with human CD73-His turned out to be 0.049 nM. Moreover, the “% of max. adenosine inhibition, Colo-201 culture supernatant” value with non-cell-bound CD73 came out at 80%.

B2: C6 (antibody, human IgG1, kappa, L234A L235A, V domains shown)
VH: QVQLVQSGAEVKKPGDSVKVSCKASGYTFTTYWMHWVRQAPGQGLEWMGAIYPGNSDTTYNQKFKGKVTMTRDTSTSTVYMKLSSLRSEDTAVYYCARLLDYAMDYWGQGTLVTVSS
VL: DIQMTQSPSSLSASVGDRVTITCRASQDIRNYLNWHQQKPGKAPKLLIWYTSRLHSGVPSRFSGSGSGTDYTLTISSLQPEDFATYFCQQGNTLPWTFGQGTKLEIKR
notes: Humanized monoclonal antibody; also called anti-CD73 antibody C6
As for B2, in the assay with cell-bound CD73 [1], the “CD73 surface reduction [%] on Colo201 cells, 24 h, flow cytometry” value is 19%. Also, the “fold higher binding to human CD73 than to mouse CD73” value with mouse CD73 turned out to be 58 fold. Moreover, in the assay with cell-bound CD73 [2], the “CD8 T cell proliferation [% of control], Donor A, 1 nM antibody” value turned out to be 102%; the “CD8 T cell proliferation [% of control], Donor B, 1 nM antibody” value worked out at 65.4%; the “CD8 T cell proliferation [% of control], Donor C, 1 nM antibody” value amounted to 88.3%; the “CD8 T cell proliferation [% of control], Donor D, 1 nM antibody” value was 99.6%. Further, in the assay with cell-bound CD73 [2], the “CD8 T cell proliferation [% of control], Donor E, 1 nM antibody” value was determined as 100% and the “CD8 T cell proliferation [% of control], Donor F, 1 nM antibody” value was determined as 91.1%. In the assay with cell-bound CD73 [3], the “IFNγ release [fold change over control], Donor A, 1 nM antibody” value amounted to 24.3 fold; the “IFNγ release [fold change over control], Donor B, 1 nM antibody” value was 12.9 fold; the “IFNγ release [fold change over control], Donor C, 1 nM antibody” value is 55.5 fold; the “IFNγ release [fold change over control], Donor D, 1 nM antibody” value worked out at 25.8 fold. In the assay with cell-bound CD73 [3], the “IFNγ release [fold change over control], Donor E, 1 nM antibody” value turned out to be 14 fold and the “IFNγ release [fold change over control], Donor F, 1 nM antibody” value is 10.3 fold. In addition, in the assay with cell-bound CD73 [4], the “% of max. adenosine inhibition, washed Colo-201 cells” value was found to be 81%. In addition, the “Max. adenosine inhibition [%] in Colo201 cells” value in the assay with cell-bound CD73 [5] stood at 88%. Besides, the “IC90 of inhibition of CD73 enzymatic function (luciferase-based assay)” value in assay [6] turned out to be 0.24 nM. In addition, the Kd with human CD73-His stood at 0.096 nM. For the same molecule, the “% of max. adenosine inhibition, Colo-201 culture supernatant” value with non-cell-bound CD73 stood at 78%.

The values above are taken from US20190352420A1 (Boehringer Ingelheim, published 2019).
